Assay results as given in paper PMC3898874.
Several values for one entry are separate records, joined by “and”; a condition that tells them apart may be missing. Equal entries are not always repeated.

Molecular target: T1, FLAG-tagged STAT1 (signal transducer and activator of transcription 1), P42224
T1 chain: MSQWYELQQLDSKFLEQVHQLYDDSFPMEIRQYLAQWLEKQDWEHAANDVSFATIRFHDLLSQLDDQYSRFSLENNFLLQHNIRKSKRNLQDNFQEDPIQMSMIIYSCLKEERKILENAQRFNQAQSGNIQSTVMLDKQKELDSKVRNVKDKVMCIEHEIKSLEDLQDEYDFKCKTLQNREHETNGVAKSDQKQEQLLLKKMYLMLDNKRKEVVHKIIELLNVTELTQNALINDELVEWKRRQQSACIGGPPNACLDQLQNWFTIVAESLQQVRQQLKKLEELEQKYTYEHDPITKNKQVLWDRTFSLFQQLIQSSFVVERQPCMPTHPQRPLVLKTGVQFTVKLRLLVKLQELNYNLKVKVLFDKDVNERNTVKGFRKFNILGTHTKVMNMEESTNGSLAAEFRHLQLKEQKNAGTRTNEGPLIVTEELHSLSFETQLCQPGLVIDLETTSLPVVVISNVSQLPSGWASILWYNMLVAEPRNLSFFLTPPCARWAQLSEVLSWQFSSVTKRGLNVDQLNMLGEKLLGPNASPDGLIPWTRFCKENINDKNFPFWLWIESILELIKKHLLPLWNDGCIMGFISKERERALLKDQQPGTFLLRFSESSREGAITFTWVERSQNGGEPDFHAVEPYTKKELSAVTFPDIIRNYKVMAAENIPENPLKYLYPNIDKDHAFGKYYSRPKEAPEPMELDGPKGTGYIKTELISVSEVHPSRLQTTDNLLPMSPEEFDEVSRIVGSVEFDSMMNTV
Assay: co-IP; anti-FLAG M2 immunoprecipitation (protein A/G PLUS agarose, 4°C) from soluble whole-cell extracts (500 μg protein) of co-transfected HEK293T cells, untreated or treated 1 h with 50 U/ml IFNγ; extraction and wash buffer with 280 mM NaCl, 0.5% NP-40, 50 mM Tris/HCl pH 7.4; quantitative blots with anti-GFP and anti-β-arrestin1; control IP without FLAG-tagged STAT1
Settings: remark: other sources report otherwise

B1: FLAG-tagged STAT1 (signal transducer and activator of transcription 1), P42224 1-750 (natural protein)
chain: MSQWYELQQLDSKFLEQVHQLYDDSFPMEIRQYLAQWLEKQDWEHAANDVSFATIRFHDLLSQLDDQYSRFSLENNFLLQHNIRKSKRNLQDNFQEDPIQMSMIIYSCLKEERKILENAQRFNQAQSGNIQSTVMLDKQKELDSKVRNVKDKVMCIEHEIKSLEDLQDEYDFKCKTLQNREHETNGVAKSDQKQEQLLLKKMYLMLDNKRKEVVHKIIELLNVTELTQNALINDELVEWKRRQQSACIGGPPNACLDQLQNWFTIVAESLQQVRQQLKKLEELEQKYTYEHDPITKNKQVLWDRTFSLFQQLIQSSFVVERQPCMPTHPQRPLVLKTGVQFTVKLRLLVKLQELNYNLKVKVLFDKDVNERNTVKGFRKFNILGTHTKVMNMEESTNGSLAAEFRHLQLKEQKNAGTRTNEGPLIVTEELHSLSFETQLCQPGLVIDLETTSLPVVVISNVSQLPSGWASILWYNMLVAEPRNLSFFLTPPCARWAQLSEVLSWQFSSVTKRGLNVDQLNMLGEKLLGPNASPDGLIPWTRFCKENINDKNFPFWLWIESILELIKKHLLPLWNDGCIMGFISKERERALLKDQQPGTFLLRFSESSREGAITFTWVERSQNGGEPDFHAVEPYTKKELSAVTFPDIIRNYKVMAAENIPENPLKYLYPNIDKDHAFGKYYSRPKEAPEPMELDGPKGTGYIKTELISVSEVHPSRLQTTDNLLPMSPEEFDEVSRIVGSVEFDSMMNTV
  fold stronger co-precipitation with FLAG-tagged STAT1 than β-arrestin1-GFP (signals normalised to inputs): 3 fold and 6 fold
